Laboratory results from the Immune Epitope Database (IEDB).

Columns and labels:
[1] = biological target: HLA-A*02:01; assay: IEDB peptide-MHC binding, purified MHC/direct/fluorescence; filed as Kd, often an IC50 or EC50 that approximates it; ≥ and ≤ were set here for values at or beyond the usual limits of such assays
[2] = biological target: HLA-A*02:01; assay: IEDB peptide-MHC binding, purified MHC/competitive/fluorescence; ≥ and ≤ were set here for values at or beyond the usual limits of such assays
[3] = biological target: HLA-A*26:01; assay: IEDB peptide-MHC binding, purified MHC/competitive/radioactivity; filed as Kd, often an IC50 or EC50 that approximates it; ≥ and ≤ were set here for values at or beyond the usual limits of such assays
[4] = biological target: HLA-A*30:02; assay: as above
[5] = biological target: HLA-A*24:02; assay: as above
[6] = biological target: HLA-A*01:01; assay: as above
[7] = biological target: HLA-B*53:01; assay: as above
[8] = biological target: HLA-A*69:01; assay: IEDB peptide-MHC binding, purified MHC/direct/fluorescence; filed as Kd, often an IC50 or EC50 that approximates it; ≥ and ≤ were set here for values at or beyond the usual limits of such assays
[9] = biological target: HLA-A*01:01; assay: as above
[10] = biological target: HLA-A*03:01; assay: as above
[11] = biological target: HLA-A*11:01; assay: as above; conditions: source organism: Coxiella burnetii
[12] = biological target: HLA-B*07:02; assay: as above; conditions: source organism: Homo sapiens
[13] = biological target: HLA-B*58:01; assay: as above; conditions: source organism: Mammarenavirus juninense
[14] = biological target: HLA-A*02:03; assay: IEDB peptide-MHC binding, purified MHC/competitive/radioactivity; filed as Kd, often an IC50 or EC50 that approximates it; ≥ and ≤ were set here for values at or beyond the usual limits of such assays
[15] = biological target: HLA-A*02:02; assay: as above
[16] = biological target: HLA-A*02:06; assay: as above
[17] = biological target: HLA-A*03:01; assay: as above; conditions: source organism: Dengue virus 3 Martinique/1243/1999
[18] = source organism: Mycobacterium tuberculosis
[19] = source organism: Dengue virus 2 Jamaica/1409/1983
[20] = source organism: Dengue virus 4 Philippines/H241/1956
[21] = source organism: Dengue virus 3 Martinique/1243/1999
[22] = source organism: Zaire ebolavirus
[23] = source organism: Dengue virus 1 Brazil/97-11/1997
[24] = source organism: Dengue virus 1 Singapore/S275/1990
[25] = source organism: Sudan ebolavirus
[26] = source organism: Vibrio parahaemolyticus
[27] = source organism: Mycobacterium tuberculosis variant bovis
[28] = source organism: Vaccinia virus WR
[29] = source organism: Mammarenavirus guanaritoense
[30] = source organism: Mammarenavirus whitewaterense
[31] = source organism: SARS coronavirus Tor2

Question: For ALAAATPMV, which Kd [1, 18] is on record?
Answer: 5.2 nM

Question: For ALFSSCPV, which IC50 ([2]; source organism: Mus musculus) is on record?
Answer: 291 nM

Question: Which Kd [1, 18] does the source give for ALLDLGWTI here?
Answer: 0.9 nM

Question: How did the Kd [3, 19] turn out when ATMTDDIGM was run?
Answer: 8340 nM

Question: For AVVIVGLHGV, which IC50 ([2]; source organism: Human alphaherpesvirus 1 strain 17) is on record?
Answer: ≥ 50000 nM

Question: With AWNFLEVEDY as the sequence, how does the Kd [4, 20] read?
Answer: 85.3 nM

Question: How did the Kd [5, 21] turn out when AYVVIGILTL was run?
Answer: 938 nM

Question: CSHHFHELV was tested. Which Kd [6, 19] did it give?
Answer: ≥ 23400 nM

Question: With DVIPMVTQL as the sequence, how does the Kd [3, 20] read?
Answer: 112 nM

Question: Which Kd [3, 20] does the source give for DVVDRGWGN here?
Answer: ≥ 77900 nM

Question: Which Kd [3, 20] does the source give for EFIDGISLGL here?
Answer: 4720 nM

Question: Which IC50 [2, 22] does the source give for EGAFFLYDR here?
Answer: ≥ 508000 nM

Question: How did the Kd [7, 23] turn out when EPSKGWNDW was run?
Answer: 1110 nM

Question: Which Kd [3, 24] does the source give for ESEMIIPKIY here?
Answer: 19900 nM

Question: And the Kd [4, 24]?
Answer: 11700 nM

Question: And the Kd [6, 24]?
Answer: 6210 nM

Question: For ETTKHAVSRG, which Kd [3, 23] is on record?
Answer: ≥ 69700 nM

Question: How did the Kd [6, 24] turn out when EVDSFSLGL was run?
Answer: 10500 nM

Question: With FFLYDRLAS as the sequence, how does the IC50 [2, 25] read?
Answer: 40000 nM

Question: Which Kd [7, 19] does the source give for FGVFTTNIW here?
Answer: 111 nM

Question: For FQLAAPSGF, which Kd [1, 26] is on record?
Answer: 9000 nM

Question: And the Kd [8, 26]?
Answer: ≥ 20000 nM

Question: For GMVPLHIPE, which IC50 [2, 25] is on record?
Answer: ≥ 103000 nM

Question: Which results are given for GSDGGLDDY?
Answer: Kd ([8]; source organism: Homo sapiens): 1930 nM; Kd ([9]; source organism: Homo sapiens): 58.1 nM

Question: With GSQPGGPLK as the sequence, how does the Kd [10, 27] read?
Answer: 1570 nM

Question: Which Kd [6, 23] does the source give for GTDAPCKIPF here?
Answer: ≥ 44700 nM

Question: For GVQPSATGR, which Kd [10, 27] is on record?
Answer: ≥ 20000 nM

Question: HPGAGKTKRY was tested. Which Kd [7, 19] did it give?
Answer: ≥ 20200 nM

Question: HVTRGAVLM was tested. Which Kd [3, 19] did it give?
Answer: 4890 nM

Question: With IAGGMLIACY as the sequence, how does the Kd [4, 23] read?
Answer: 418 nM

Question: IHLAIMAVF was tested. Which Kd [5, 20] did it give?
Answer: 71.9 nM

Question: ILCGWHLLK was tested. Which Kd ([10]; source organism: Coxiella burnetii) did it give?
Answer: 33.2 nM

Question: What about the Kd [11] of the same sequence?
Answer: 3.8 nM

Question: How did the Kd ([1]; source organism: Alto Paraguay hantavirus) turn out when ILQDMRNTI was run?
Answer: 7.6 nM

Question: How did the Kd [12] turn out when IPYHIVNIV was run?
Answer: 3460 nM

Question: And the Kd ([8]; source organism: Homo sapiens)?
Answer: 1340 nM

Question: With KCDICTDEY as the sequence, how does the Kd ([9]; source organism: Homo sapiens) read?
Answer: 806 nM

Question: Which Kd [13] does the source give for KLDPTNTLW here?
Answer: 66.9 nM

Question: KLFKRERDAI was tested. Which Kd [14, 28] did it give?
Answer: 120 nM

Question: And the Kd [15, 28]?
Answer: 92.5 nM

Question: And the Kd [16, 28]?
Answer: 14200 nM

Question: How did the Kd ([1]; source organism: Amur virus) turn out when KLLPDTAAV was run?
Answer: 2.1 nM

Question: For KLMSGKDVFY, which Kd [17] is on record?
Answer: 15.9 nM

Question: And the Kd [4, 21]?
Answer: ≥ 69700 nM

Question: And the Kd [6, 21]?
Answer: 1480 nM

Question: KLYGYASLT was tested. Which Kd [14, 28] did it give?
Answer: 21.5 nM

Question: What about the Kd [15, 28] of the same sequence?
Answer: 75.8 nM

Question: And the Kd [16, 28]?
Answer: 1990 nM

Question: Which results are given for KRHSTKYHL?
Answer: Kd [5, 29]: ≥ 60300 nM; Kd [3, 29]: ≥ 77900 nM; Kd [4, 29]: ≥ 33300 nM

Question: What does the source list for KYPNLNDLK?
Answer: Kd [3, 30]: ≥ 77900 nM; Kd [4, 30]: 9570 nM; Kd [6, 30]: ≥ 41000 nM

Question: How did the Kd [14, 28] turn out when LAISAVYFKA was run?
Answer: 363 nM

Question: What about the Kd [15, 28] of the same sequence?
Answer: 1430 nM

Question: What about the Kd [16, 28] of the same sequence?
Answer: 659 nM

Question: For LGLITNTIA, which IC50 [2, 22] is on record?
Answer: 35300 nM

Question: LIGLTARATW was tested. Which Kd [7, 23] did it give?
Answer: 1810 nM

Question: How did the Kd [14, 31] turn out when LLLSICLGSL was run?
Answer: 104 nM

Question: What about the Kd [15, 31] of the same sequence?
Answer: 20.1 nM

Question: And the Kd [16, 31]?
Answer: 258 nM

Question: How did the Kd ([1]; source organism: Mammarenavirus lassaense) turn out when LLMEGLKLL was run?
Answer: ≤ 1 nM

Question: With LPLFIFSLKD as the sequence, how does the Kd [7, 21] read?
Answer: 2920 nM

Question: For LQDIVNEHDI, which Kd [14, 28] is on record?
Answer: ≥ 38200 nM

Question: What about the Kd [15, 28] of the same sequence?
Answer: 7630 nM

Question: What about the Kd [16, 28] of the same sequence?
Answer: 10900 nM

Question: For LQWDDNIPEL, which Kd [14, 28] is on record?
Answer: 712 nM

Question: And the Kd [15, 28]?
Answer: 180 nM

Question: And the Kd [16, 28]?
Answer: 34.4 nM

Question: LTEFQPHQL was tested. Which Kd [6, 23] did it give?
Answer: 8760 nM

Question: For LTEFQPHQLW, which Kd [7, 23] is on record?
Answer: 990 nM

Question: What about the Kd [6, 23] of the same sequence?
Answer: 12900 nM

Question: With LTHFNNNENV as the sequence, how does the Kd [14, 28] read?
Answer: 7270 nM

Question: What about the Kd [15, 28] of the same sequence?
Answer: 907 nM

Question: What about the Kd [16, 28] of the same sequence?
Answer: 996 nM

Question: How did the Kd ([5]; source organism: Dengue virus 2 Peru/IQT2913/1996) turn out when LYAVATTFIT was run?
Answer: ≥ 23500 nM

Question: For MAAAKTPVI, which Kd [14, 28] is on record?
Answer: 209 nM

Question: And the Kd [15, 28]?
Answer: 259 nM

Question: And the Kd [16, 28]?
Answer: 672 nM

Question: How did the Kd ([9]; source organism: Influenza A virus (A/Fujian/411/02-like(H3N2))) turn out when MASTPASRY was run?
Answer: ≥ 20000 nM

Question: How did the Kd [14, 28] turn out when MTSTRTIILV was run?
Answer: 920 nM

Question: What about the Kd [15, 28] of the same sequence?
Answer: 1980 nM

Question: And the Kd [16, 28]?
Answer: 217 nM

Question: MTTEDMLTVW was tested. Which Kd [7, 21] did it give?
Answer: 122 nM

Question: Which results are given for MVTDKTAYI?
Answer: Kd [14, 28]: 1.99 nM; Kd [15, 28]: 16.8 nM; Kd [16, 28]: 25.2 nM

Question: For NAGQFLSFA, which IC50 [2, 22] is on record?
Answer: ≥ 121000 nM

Question: NASKTINAL was tested. Which Kd [14, 28] did it give?
Answer: 708 nM

Question: What about the Kd [15, 28] of the same sequence?
Answer: 117 nM

Question: What about the Kd [16, 28] of the same sequence?
Answer: 6100 nM
